Data as given in paper PMC6212840.
Where two headings read alike, the source gives them in different places.

B1: TbMP63-OB (aa 472-587) (domain or fragment)
chain: SAIGASWAETELIPHAQCVSNITIVGRVLDVSQASENVSHVTVFVEGERSGEEETLTLCCFGEVSQKIRGTLKRNATIFASGTLRLHPVYEASNNKYYVSPVVHVSMPTGTLAVIT

Tests used:
[1] = molecular target: TbMP18-FL (aa 19-164) (Trypanosoma brucei); experiment: SEC
[2] = molecular target: TbMP18-FL (aa 19-164) (Trypanosoma brucei)

Molecule | stoichiometry N [1] | stoichiometry N [2]
TbMP18-FL (aa 19-164) (natural protein) | 4 | 
TbMP24-FL (aa 47-246) (natural protein) | 1.5 | 1.1
B1 |  | 0.67
